To fix the notation:
B1: VP30.14 (ssRNA)
RNA: GGGAGGACGAUGCGGACUGGGAGAAUCCGAAAAACCUUCACGCGUCAGACGACUCGCCCGA
modifications: 2'-F pyrimidines
B2: VP30.25 (ssRNA)
RNA: GGGAGGACGAUGCGGCGGGAUUUUGGAAGAAUUGGAUAUUGGCCUCAGACGACUCGCCCGA
modifications: 2'-F pyrimidines
B3: VP30.20 (ssRNA)
RNA: GGGAGGACGAUGCGGUUGAUCGGACGUUAGUCAUUUCCCGAUCGUCAGACGACUCGCCCGA
modifications: 2'-F pyrimidines
B4: VP40.2 (ssRNA)
RNA: GGGAGGACGAUGCGGAUCUGUGAACUGGGUUUUUGCCGACGGUUACGCUUUUGCUCAGACGACUCGCCCGA
modifications: 2'-F pyrimidines
B5: VP30.1 (ssRNA)
RNA: GGGAGGACGAUGCGGUCUUUGAGUUUUUGCCAACGGUUUUCGCUCAGACGACUCGCCCGA
modifications: 2'-F pyrimidines
B6: VP40.25 (ssRNA)
RNA: GGGAGGACGAUGCGGAAUGGAAUUUGAGUCGAUCUAGAAUGCGUCGUAUGGGCUCAGACGACUCGCCCGA
modifications: 2'-F pyrimidines
B7: VP40.24 (ssRNA)
RNA: GGGAGGACGAUGCGGGAUGCUGAGUGAGGAAGUCUGAUUGUUGCAGUAUUGGCGUCAGACGACUCGCCCGA
modifications: 2'-F pyrimidines
B8: VP30.67 (ssRNA)
RNA: GGGAGGACGAUGCGGUUAACGGAAUUCUUGGAUACAUAGCAUGGUCAGACGACUCGCCCGA
modifications: 2'-F pyrimidines
B9: VP30.40 (ssRNA)
RNA: GGGAGGACGAUGCGGAAACGGAAGAAUUGGAUACGCAAGCACGUUCAGACGACUCGCCCGA
modifications: 2'-F pyrimidines
B10: VP30.65 (ssRNA)
RNA: GGGAGGACGAUGCGGAAAACGCUUUUCUUGGCCCCCUCGUUGCGCCAGACGACUCGCCCGA
modifications: 2'-F pyrimidines
B11: VP40.18 (ssRNA)
RNA: GGGAGGACGAUGCGGUAGUAAGUUAUUGAAAGCGCAUCUCUAUCAACUCUCGGCCCAGACGACUCGCCCGA
modifications: 2'-F pyrimidines
B12: VP30.35 (ssRNA)
RNA: GGGAGGACGAUGCGGUGAAUGAGCUGACGACCCUGAAUUGCUCGUCAGACGACUCGCCCGA
modifications: 2'-F pyrimidines
B13: VP40.5 (ssRNA)
RNA: GGGAGGACGAUGCGGUUGAUCGAGGUUCUAAAGCCUAUUUCCUGACUUUCUCCCCCAGACGACUCGCCCGA
modifications: 2'-F pyrimidines
B14: VP30.11 (ssRNA)
RNA: GGGAGGACGAUGCGGUCAGGAACGGAAUUUUUGGAGACACGCCCUCAGACGACUCGCCCGA
modifications: 2'-F pyrimidines
B15: VP40.26 (ssRNA)
RNA: GGGAGGACGAUGCGGACUCAACUGGACGCUAUGUUGACGGUUAUCGCUUUUGGGUCAGACGACUCGCCCGA
modifications: 2'-F pyrimidines
B16: VP30.58 (ssRNA)
RNA: GGGAGGACGAUGCGGCAACUAUUCGUUGAUGUUUCCGUGAGCCGUCAGACGACUCGCCCGA
modifications: 2'-F pyrimidines
B17: VP30.23 (ssRNA)
RNA: GGGAGGACGAUGCGGGAGCUUGAAGUUUCAGUAUUGGCACAACCUCAGACGACUCGCCCGA
modifications: 2'-F pyrimidines
B18: VP30.61 (ssRNA)
RNA: GGGAGGACGAUGCGGGAGCUUGAAGUUUCAGUACUGGCACAACCUCAGACGACUCGCCCGA
modifications: 2'-F pyrimidines
B19: VP30.48 (ssRNA)
RNA: GGGAGGACGAUGCGGGAGCUUGAAGUUUCGGUAUUGGCACAACCUCAGACGACUCGCCCGA
modifications: 2'-F pyrimidines
B20: VP30.63 (ssRNA)
RNA: GGGAGGACGAUGCGGAACCAAUAGAGAUCUUCGGCUGCCCCGCGUCAGACGACUCGCCCGA
modifications: 2'-F pyrimidines
B21: VT30.54 (ssRNA)
RNA: GGGAGGACGAUGCGGGACUAGGUGAAUGCCAAUAUUCUUCUCCGUCAGACGACUCGCCCGA
modifications: 2'-F pyrimidines
B22: VP30.6 (ssRNA)
RNA: GGGAGGACGAUGCGGAACGGAAUUCUUGGAUACACACCUCGUCCUCAGACGACUCGCCCGA
modifications: 2'-F pyrimidines
B23: VP40.3 (ssRNA)
RNA: GGGAGGACGAUGCGGCAAAAGUUUGAGUUGAUCUGAUACGUUUCAGUAUUGGCGUCAGACGACUCGCCCGA
modifications: 2'-F pyrimidines
B24: VP40.11 (ssRNA)
RNA: GGGAGGACGAUGCGGAAGGAAGAUGUUGAUCGUUUGACGUGAUGUGGAUCCGCGUCAGACGACUCGCCCGA
modifications: 2'-F pyrimidines
B25: VP30.27 (ssRNA)
RNA: GGGAGGACGAUGCGGAAGAAUUGGAUAUAUCGUUCACCCCCACCUCAGACGACUCGCCCGA
modifications: 2'-F pyrimidines
B26: VP40.36 (ssRNA)
RNA: GGGAGGACGAUGCGGCAGGUUCAGAAUUGGCAGUCGCAUUGAUCUUUUUCACCGCCAGACGACUCGCCCGA
modifications: 2'-F pyrimidines
B27: VP30.18 (ssRNA)
RNA: GGGAGGACGAUGCGGAUCCAUCAUUUAACCGUUUGCUCUCCCCCUCAGACGACUCGCCCGA
modifications: 2'-F pyrimidines
B28: t44 (ssRNA)
RNA: GCGGAAUCAGUGAAUGCUUAUACAUCCGC
modifications: 2'-F pyrimidines, N30 = 3'-3' inverted dT [30 = 3'-3' inverted dT (N replaced by T); 2'-F pyrimidines at 2,7,8,11,15,17,18,19,21,23,25,26,27,29]
B29: t22 (ssRNA)
RNA: GACGAUGCGGUAGGAAGAAUUGGAAGCGC
modifications: 2'-F pyrimidines, N30 = 3'-3' inverted dT [30 = 3'-3' inverted dT; all C/U at 1-29 = 2'-F]
B30: t2d (ssRNA)
RNA: AACCGAUGGAAUUUUUGGACGCU
modifications: 2'-F pyrimidines, N24 = 3'-3' inverted dT [24 = 3'-3' inverted dT (N replaced by T); 2'-F pyrimidines at 3,4,7,12,13,14,15,16,20,22,23]
B31: t2c (ssRNA)
RNA: GAACCGAUGGAAUUUUUGGACGCUC
modifications: 2'-F pyrimidines, N26 = 3'-3' inverted dT [26 = 3'-3' inverted dT (N replaced by T); 2'-F pyrimidines at 4,5,8,13,14,15,16,17,21,23,24,25]

T1 sequence (P15692 other isoform, or with tags, fused parts or gaps): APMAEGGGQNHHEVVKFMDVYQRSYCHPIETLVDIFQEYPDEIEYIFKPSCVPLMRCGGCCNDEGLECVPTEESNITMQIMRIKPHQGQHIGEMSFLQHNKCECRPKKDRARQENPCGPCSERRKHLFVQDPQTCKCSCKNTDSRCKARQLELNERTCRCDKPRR

One data set addresses T1, VEGF165 (Homo sapiens, UniProt P15692-4 P15692-4:27-191). Kind of data set: filter; 37 C. The conditions noted are these: tags: carrier-free, Sf 21 insect cell expressed, R & D Systems; chain copies: 2 (inferred). As to the method:
(§1) Nucleic Acid Ligands radiolabeled during transcription by incorporation of α-[³²P]-labeled NTPs, or after synthesis using γ-[³²P]-ATP and T4 polynucleotide kinase, were incubated in low concentration (between 20 and 70 pM) with varying concentrations of VEGF or other growth factors at 37° C. for 15 minutes. Incubations were in TBS, PBS, or HEPES-buffered saline (HBS), pH 7.4, with or without the addition of supplemental divalent cations. Samples were passed through prewashed 0.45 μ Type HA filters (Millipore) followed by a 5-10 ml wash with binding buffer. Filters were immersed in scintillant and counted to quantitate the amount of protein-bound RNA retained by each filter. The equilibrium dissociation constant (KD) of Nucleic Acid Ligand binding to a specific protein was calculated from the data points as described in Green et al. (1996) Biochem. 35: 14413-14424.
Stabilization of oligonucleotides to nucleases is likely to be critical to their success as therapeutic or diagnostic agents. Unfortunately, 2′-OMe-modified nucleoside triphosphates are not generally accepted as substrates by RNA polymerases under standard reaction conditions. However, 2′-OMe purines may be introduced into a specific oligonucleotide by chemical synthesis. […] To identify those purine positions for which 2′-OMe substitution is compatible with high affinity binding to VEGF, several syntheses of ligands t2, t22 and t44 were prepared in which five or six purines at a time were partially substituted with the modified nucleotide (described in Example 3). Affinity selection of each partially substituted library was used to isolate those molecules that retained substantial affinity for VEGF.
The Kd is the constant that tells how readily two partners part at equilibrium. Low values mean a tighter complex, high ones a looser complex. The molecule GACGAUGCGGUAGGAAGAAUUGGAAGCGC (ssRNA, 2'-F pyrimidines, 2'-OMe purines except 2'-OH G10, A12, G22) [t22OMe (OH-10,12,22)] returned an equilibrium dissociation constant (Kd) of 0.01 nM.

In another data set the target is T1, VEGF165. The data set can be described thus: filter; 37 C. The conditions noted are these: tags: carrier-free, Sf 21 insect cell expressed, R & D Systems; chain copies: 2 (inferred). The source holds these as a separate data set. The procedure:
as §1
As for B1, the equilibrium dissociation constant (Kd) came out at 0.025 nM.

On to B2, for which the Kd was 0.02 nM.

Consider B3, for which the Kd stood at 0.057 nM.

Turning to B4, the dissociation constant (Kd) amounted to 0.035 nM.

As to B5, the Kd is 32 nM.

The molecule B6 registered a Kd of 0.74 nM.

B7 registered a Kd of 5 nM.

In turn, B8 returned a Kd of 0.024 nM.

Molecule B9 yielded a Kd of 0.006 nM.

Consider B10, for which the Kd stood at 0.033 nM.

For B11, binding was put at a Kd of 0.012 nM.

For the molecule B12, the Kd worked out at 0.006 nM.

B13 showed a dissociation constant Kd of 0.019 nM.

With B14, the Kd amounted to 0.025 nM.

The molecule B15 came in with a Kd of 0.013 nM.

B16 came in with a Kd of 0.006 nM.

Consider B17, for which binding was put at a Kd of 0.063 nM.

On to B18, for which binding was put at a Kd of 0.043 nM.

B19 gave a Kd above 10 nM.

Take B20: binding was characterised by a dissociation constant (Kd) of 0.016 nM.

B21: the Kd was 0.01 nM.

Turning to B22, the Kd was found to be 0.02 nM.

Consider B23, for which the Kd turned out to be 2 nM.

The molecule B24 returned a Kd of 0.98 nM.

The molecule B25 registered an equilibrium dissociation constant (Kd) of 0.4 nM.

B26 had a Kd of 1.3 nM.

On to B27, for which binding was put at a Kd of 0.027 nM.

The next data set concerns the target T1, VEGF165. The data set can be described thus: filter; 37 C. The conditions noted are these: tags: carrier-free, Sf 21 insect cell expressed, R & D Systems; chain copies: 2 (inferred). This is another data set of the same source. The procedure:
as §1
The shared primary and secondary structural motifs that define each sequence family hint at the minimal sequence elements required for high affinity binding to VEGF. Nested truncations of a representative ligand from each family (indicated by gray boxes in Table 2) were produced by chemical synthesis and their relative affinities for VEGF were determined (Table 3). Truncated versions of ligands VP30.22, VP30.2 and VT30.44 were prepared by chemical synthesis and their affinities for VEGF were determined as described in Example 3. Initial truncations (t22, t2, t44) were further refined by synthesis of oligonucleotides with additional bases lacking from the 5′ and/or 3′ ends. In order to initiate the chemical synthesis, the 3′-most nucleotide of several of the ligands was modified either by substitution of 2′-OH-cytidine for 2′-F-cytidine (underlined) or by addition of a 3′-3′-linked deoxythymidine “cap” (asterisks). The length of each oligonucleotide (minus the cap) and its high affinity KD for binding to VEGF are shown.
Molecule B28 returned an equilibrium dissociation constant (Kd) of 0.01 nM.

For B29, the Kd amounted to 0.07 nM.

Molecule GCGAACCGAUGGAAUUUUUGGACGCUCGC (ssRNA, 2'-F pyrimidines except 2'-OH C29) [t2a] registered a Kd of 0.04 nM.

In turn, B30 had a Kd of 20 nM.

GCGGUAGGAAGAAUUGGAAGCGC (ssRNA, 2'-F pyrimidines except 2'-OH C23) [t22c] had a Kd of 0.09 nM.

In the case of GGAAUCAGUGAAUGCUUAUACAUCC (ssRNA, 2'-F pyrimidines except 2'-OH C25) [t44b], the Kd is 0.06 nM.

B31 registered a dissociation constant (Kd) of 0.2 nM.

ACGAUGCGGUAGGAAGAAUUGGAAGCGC (ssRNA, 2'-F pyrimidines except 2'-OH C28) [t22b]: the affinity, expressed as Kd, was 0.08 nM.

The molecule CGAACCGAUGGAAUUUUUGGACGCUCG (ssRNA, 2'-F pyrimidines) [t2b] showed a Kd of 0.1 nM.

CGGAAUCAGUGAAUGCUUAUACAUCCG (ssRNA, 2'-F pyrimidines) [t44a] showed a Kd of 0.01 nM.

As for GACGAUGCGGUAGGAAGAAUUGGAAGCG (ssRNA, 2'-F pyrimidines) [t22a], binding was put at a Kd of 3 nM.

CGGUAGGAAGAAUUGGAAGCGC (ssRNA, 2'-F pyrimidines except 2'-OH C22) [t22d] returned a dissociation constant Kd of 0.1 nM.

(Values after patent publication US20030114404, “Vascular endothelial growth factor (VEGF) nucleic acid ligand complexes” (Gilead Sciences, Inc., published 2003).)
